Measured values published in paper PMC11930357.

Assays:
[1] = target: HP1α (UniProt P45973); assay: SEC-MALS molar mass (CSD-mediated dimer); details: sites S11,S12,S13,S14
[2] = target: Phosphorylated CSD deletion mutant of HP1α_S97A (residues 1–120, phosphorylated at Ser11–Ser14) (human) (UniProt P45973); assay: SEC-SAXS; Superdex 200 Increase, 20 mM sodium phosphate pH 7.0, 1 mM DTT, 50 mM NaCl; Rg against concentration; profiles fitted with EOM and with reweighted CGMD ensembles (one- or two-molecule systems)
[3] = target: HP1α ΔCSD, 1-120 (UniProt P45973); assay: SEC-MALS molar mass; details: reference: ΔCSD expressed without CK2; sites S11,S12,S13,S14

Sequence of HP1α (P45973 whole entry, change not shown): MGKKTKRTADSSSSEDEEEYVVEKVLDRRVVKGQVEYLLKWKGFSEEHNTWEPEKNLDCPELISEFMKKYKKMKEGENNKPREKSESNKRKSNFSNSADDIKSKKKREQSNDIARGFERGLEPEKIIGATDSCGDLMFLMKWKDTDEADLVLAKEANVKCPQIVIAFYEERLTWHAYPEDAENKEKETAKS

HP1α (from UniProt P45973) pHP1α co-expressed with CK2, 50 mM NaCl
other: molar mass ([1]; reference: HP1α expressed without CK2, 50 mM NaCl): same; reference 45.7

Phosphorylated CSD deletion mutant of HP1α_S97A (residues 1–120, phosphorylated at Ser11–Ser14) (from UniProt P45973 1-120) (domain or fragment)
stoichiometry N [2]: 2

HP1α ΔCSD, 1-120 (from UniProt P45973) pΔCSD co-expressed with CK2
other: molar mass [3]: none in both; reference 16.3

HP1α (from UniProt P45973) pHP1α co-expressed with CK2, 500 mM NaCl
other: molar mass ([1]; reference: HP1α expressed without CK2, 500 mM NaCl): same; reference 44.5
